Results: publication PMC5402353 (Journal of molecular biology, 2017)
Like-named read-outs stand apart in the source and are kept apart here.

T1: hexYme1p (S. cerevisiae) (UniProt P32795)
T1 sequence: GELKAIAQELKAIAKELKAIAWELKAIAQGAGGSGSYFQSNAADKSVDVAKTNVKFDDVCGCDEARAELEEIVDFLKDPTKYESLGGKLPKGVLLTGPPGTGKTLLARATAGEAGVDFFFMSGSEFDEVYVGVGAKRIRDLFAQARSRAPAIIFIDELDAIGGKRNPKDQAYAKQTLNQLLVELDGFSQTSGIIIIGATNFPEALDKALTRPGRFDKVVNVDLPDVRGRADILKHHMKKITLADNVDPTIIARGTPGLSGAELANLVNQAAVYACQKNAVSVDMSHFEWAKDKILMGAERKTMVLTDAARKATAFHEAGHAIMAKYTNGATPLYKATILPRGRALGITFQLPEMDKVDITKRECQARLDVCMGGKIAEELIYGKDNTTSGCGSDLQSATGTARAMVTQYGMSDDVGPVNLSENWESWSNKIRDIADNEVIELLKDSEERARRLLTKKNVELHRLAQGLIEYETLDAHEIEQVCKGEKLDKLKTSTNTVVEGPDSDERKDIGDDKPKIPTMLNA


How the values were obtained:
hexYme1p (S. cerevisiae) [1] = molecular target: T1, hexYme1p (S. cerevisiae)
hexYme1p (S. cerevisiae) [2] = molecular target: T1, hexYme1p (S. cerevisiae); remark: listed apart in the source
SEC = molecular target: the molecule itself; assay: SEC

Molecule	initial rate of degradation of 20 μM substrate by hexYme1p (min^−1 enz6^−1) (hexYme1p (S. cerevisiae) [1])	initial rate of degradation by hexYme1p (min^−1 enz6^−1) (hexYme1p (S. cerevisiae) [2])	further results
T13-λcI^N (from UniProt P53299 1-13)	0.22	–	–
T9-λcI^N (from UniProt O74700 1-8)	0.03	–	–
T12-λcI^N (from UniProt P32830 1-15)	0.33	–	–
T10-λcI^N (from UniProt P87108 1-15)	0.7	–	–
Tim13^3–7A (natural protein) MGAAAAAGGGAPSQQKEAATTAKTTPNPIAKELKNQIAQELAVANATELVNKISENCFEKCLTSPYATRNDACIDQCLAKYMRSWNVISKAYISRIQNASASGEI	–	–	initial rate of degradation by hexYme1p, without DTT (min^−1 enz6^−1) (hexYme1p (S. cerevisiae) [1]): 0.05
Tim9^D2F (natural protein) MFALNSKEQQEFQKVVEQKQMKDFMRLYSNLVERCFTDCVNDFTTSKLTNKEQTCIMKCSEKFLKHSERVGQRFQEQNAALGQGLGR	–	–	initial rate of degradation by hexYme1p, without DTT (min^−1 enz6^−1) (hexYme1p (S. cerevisiae) [2]): 0.16
hexYme1p (enzyme, S. cerevisiae) GELKAIAQELKAIAKELKAIAWELKAIAQGAGGSGSYFQSNAADKSVDVAKTNVKFDDVCGCDEARAELEEIVDFLKDPTKYESLGGKLPKGVLLTGPPGTGKTLLARATAGEAGVDFFFMSGSEFDEVYVGVGAKRIRDLFAQARSRAPAIIFIDELDAIGGKRNPKDQAYAKQTLNQLLVELDGFSQTSGIIIIGATNFPEALDKALTRPGRFDKVVNVDLPDVRGRADILKHHMKKITLADNVDPTIIARGTPGLSGAELANLVNQAAVYACQKNAVSVDMSHFEWAKDKILMGAERKTMVLTDAARKATAFHEAGHAIMAKYTNGATPLYKATILPRGRALGITFQLPEMDKVDITKRECQARLDVCMGGKIAEELIYGKDNTTSGCGSDLQSATGTARAMVTQYGMSDDVGPVNLSENWESWSNKIRDIADNEVIELLKDSEERARRLLTKKNVELHRLAQGLIEYETLDAHEIEQVCKGEKLDKLKTSTNTVVEGPDSDERKDIGDDKPKIPTMLNA	–	–	stoichiometry N (SEC): 6

Second part, led by results:

initial rate of degradation of 20 μM substrate by hexYme1p (min^−1 enz6^−1) (hexYme1p (S. cerevisiae) [1])	initial rate of degradation by hexYme1p (min^−1 enz6^−1) (hexYme1p (S. cerevisiae) [2])	Molecule	further results
–	0.05	Tim10^2–6A (natural protein) MAAAAAGGGQPQLSSQQKIQAAEAELDLVTDMFNKLVNNCYKKCINTSYSEGELNKNESSCLDRCVAKYFETNVQVGENMQKMGQSFNAAGKF	–
–	0.11	Tim10^F3A/F6A (natural protein) MSALGAGGGQPQLSSQQKIQAAEAELDLVTDMFNKLVNNCYKKCINTSYSEGELNKNESSCLDRCVAKYFETNVQVGENMQKMGQSFNAAGKF	–
–	0.43	Tim10^F-alone (natural protein) MAFAAFAGGQPQLSSQQKIQAAEAELDLVTDMFNKLVNNCYKKCINTSYSEGELNKNESSCLDRCVAKYFETNVQVGENMQKMGQSFNAAGKF	–
